Experimental data as given in PMC5218393.

Target: C7 scFv (soluble, purified)
Assay: competition ELISA
Conditions: chain shown with the change, competition format: a low value means the soluble protein binds the scFv, read off a plot; for other: Relative binding (residual antibody binding to coated Lu-Fc with the mutant protein as competitor): mutant protein mixed with diluted C7 scFv, wells coated with Lu-Fc; for other: Relative binding (residual antibody binding to coated antigen with the mutant protein as competitor): C7 scFv 0.6 μg/ml mixed with the mutant protein

Sequence of C7 scFv (soluble, purified) (chain, as listed by the source, chain 1 of 2): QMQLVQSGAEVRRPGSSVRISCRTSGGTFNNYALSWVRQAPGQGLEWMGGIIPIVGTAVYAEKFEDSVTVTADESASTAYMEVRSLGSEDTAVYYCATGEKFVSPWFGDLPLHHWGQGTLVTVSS
Sequence of C7 scFv (soluble, purified) (chain, as listed by the source, chain 2 of 2): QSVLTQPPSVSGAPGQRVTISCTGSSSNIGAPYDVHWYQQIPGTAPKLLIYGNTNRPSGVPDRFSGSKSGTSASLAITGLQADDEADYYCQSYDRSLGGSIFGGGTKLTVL

Binder	other: Relative binding (residual antibody binding to coated Lu-Fc with the mutant protein as competitor) [%]	other: Relative binding (residual antibody binding to coated antigen with the mutant protein as competitor) (parent: est. 5) [%]	other results
recombinant Lu extracellular domain fused with an Fc-Tag (Lu-Fc), P50895 H257R (protein) EVRLSVPPLVEVMRGKSVILDCTPTGTHDHYMLEWFLTDRSGARPRLASAEMQGSELQVTMHDTRGRSPPYQLDSQGRLVLAEAQVGDERDYVCVVRAGAAGTAEATARLNVFAKPEATEVSPNKGTLSVMEDSAQEIATCNSRNGNPAPKITWYRNGQRLEVPVEMNPEGYMTSRTVREASGLLSLTSTLYLRLRKDDRDASFHCAAHYSLPEGRHGRLDSPTFRLTLHYPTEHVQFWVGSPSTPAGWVREGDTVQLLCRGDGSPSPEYTLFRLQDEQEEVLNVNLEGNLTLEGVTRGQSGTYGCRVEDYDAADDVQLSKTLELRVAYLDPLELSEGKVLSLPLNSSAVVNCSVHGLPTPALRWTKDSTPLGDGPMLSLSSITFDSNGTYVCEASLPTVPVLSRTQNFTLLVQGSPELKTAEIEPKADGSWREGDEVTLICSARGHPDPKLSWSQLGGSPAEPIPGRQGWVSSSLTLKVTSALSRDGISCEASNPHGNKRHVFHFGTVSPQTSQA	3	–	–
mouse Lu-Fc (MsLu-Fc), Q9R069 D142A; N168R; H247P (protein) ELHVSVPPRVEVMRGEQVALDCTPREHPEHYVLEWFLVDGTGARHRLASVEPQGSEFLGTVHSLGRVPPYEVDSRGRLVIAKVQVGDGRDYVCVVKAGAAGTSEATSSVRVFATPEATEVSPNKGTLSVMDQFAQEIATCSSRNGNPVPRITWYRNGQRLEVPMEVNQKGYITIRTVREASGLYSLTSTLYLRLHKDDRDANFHCAAHYDLPSGQHGRLDSPTFRLTLHYPTEHVEFWVGSPSTTEGWVREGDAVQLLCQGDGSPSPEYSFFRQQGTQEEQLNVNLKGNLTLERVHRNQSGIYGCRVEDYDADEEVQLVKKLKLHVAYLDPLELSVPEELFVFLNSSSTVVNCSARGLPTPTVRWTKDSVTLADGPMLSLQSVTFDSAGTYTCEASTPTVPLLSRTQSFQLIVQGAPELKPNEIMPKSGNSWTEGDEVMLTCSARGFPEPKLTWSQRGDTPAEPPFEGRGWKSSSLMVKVTSALSREGVSCEASNIHGKKGHVFHFGSVAPQTAQA	–	–	other: Relative binding (residual antibody binding to coated antigen with the mutant protein as competitor) (parent: est. 110): 95%
recombinant Lu extracellular domain fused with an Fc-Tag (Lu-Fc), P50895 P254H (protein) EVRLSVPPLVEVMRGKSVILDCTPTGTHDHYMLEWFLTDRSGARPRLASAEMQGSELQVTMHDTRGRSPPYQLDSQGRLVLAEAQVGDERDYVCVVRAGAAGTAEATARLNVFAKPEATEVSPNKGTLSVMEDSAQEIATCNSRNGNPAPKITWYRNGQRLEVPVEMNPEGYMTSRTVREASGLLSLTSTLYLRLRKDDRDASFHCAAHYSLPEGRHGRLDSHTFHLTLHYPTEHVQFWVGSPSTPAGWVREGDTVQLLCRGDGSPSPEYTLFRLQDEQEEVLNVNLEGNLTLEGVTRGQSGTYGCRVEDYDAADDVQLSKTLELRVAYLDPLELSEGKVLSLPLNSSAVVNCSVHGLPTPALRWTKDSTPLGDGPMLSLSSITFDSNGTYVCEASLPTVPVLSRTQNFTLLVQGSPELKTAEIEPKADGSWREGDEVTLICSARGHPDPKLSWSQLGGSPAEPIPGRQGWVSSSLTLKVTSALSRDGISCEASNPHGNKRHVFHFGTVSPQTSQA	–	3	–
mouse Lu-Fc (MsLu-Fc), Q9R069 Q240R (protein) ELHVSVPPRVEVMRGEQVALDCTPREHPEHYVLEWFLVDGTGARHRLASVEPQGSEFLGTVHSLGRVPPYEVDSRGRLVIAKVQVGDGRDYVCVVKAGAAGTSEATSSVRVFATPEDTEVSPNKGTLSVMDQFAQEIATCSSNNGNPVPRITWYRNGQRLEVPMEVNQKGYITIRTVREASGLYSLTSTLYLRLHKDDRDANFHCAAHYDLPSGRHGRLDSHTFRLTLHYPTEHVEFWVGSPSTTEGWVREGDAVQLLCQGDGSPSPEYSFFRQQGTQEEQLNVNLKGNLTLERVHRNQSGIYGCRVEDYDADEEVQLVKKLKLHVAYLDPLELSVPEELFVFLNSSSTVVNCSARGLPTPTVRWTKDSVTLADGPMLSLQSVTFDSAGTYTCEASTPTVPLLSRTQSFQLIVQGAPELKPNEIMPKSGNSWTEGDEVMLTCSARGFPEPKLTWSQRGDTPAEPPFEGRGWKSSSLMVKVTSALSREGVSCEASNIHGKKGHVFHFGSVAPQTAQA	14	–	–
recombinant Lu extracellular domain fused with an Fc-Tag (Lu-Fc), P50895 A149D (protein) EVRLSVPPLVEVMRGKSVILDCTPTGTHDHYMLEWFLTDRSGARPRLASAEMQGSELQVTMHDTRGRSPPYQLDSQGRLVLAEAQVGDERDYVCVVRAGAAGTAEATARLNVFAKPEDTEVSPNKGTLSVMEDSAQEIATCNSRNGNPAPKITWYRNGQRLEVPVEMNPEGYMTSRTVREASGLLSLTSTLYLRLRKDDRDASFHCAAHYSLPEGRHGRLDSPTFHLTLHYPTEHVQFWVGSPSTPAGWVREGDTVQLLCRGDGSPSPEYTLFRLQDEQEEVLNVNLEGNLTLEGVTRGQSGTYGCRVEDYDAADDVQLSKTLELRVAYLDPLELSEGKVLSLPLNSSAVVNCSVHGLPTPALRWTKDSTPLGDGPMLSLSSITFDSNGTYVCEASLPTVPVLSRTQNFTLLVQGSPELKTAEIEPKADGSWREGDEVTLICSARGHPDPKLSWSQLGGSPAEPIPGRQGWVSSSLTLKVTSALSRDGISCEASNPHGNKRHVFHFGTVSPQTSQA	–	3	–
recombinant Lu extracellular domain fused with an Fc-Tag (Lu-Fc), P50895 R247Q (protein) EVRLSVPPLVEVMRGKSVILDCTPTGTHDHYMLEWFLTDRSGARPRLASAEMQGSELQVTMHDTRGRSPPYQLDSQGRLVLAEAQVGDERDYVCVVRAGAAGTAEATARLNVFAKPEATEVSPNKGTLSVMEDSAQEIATCNSRNGNPAPKITWYRNGQRLEVPVEMNPEGYMTSRTVREASGLLSLTSTLYLRLRKDDRDASFHCAAHYSLPEGQHGRLDSPTFHLTLHYPTEHVQFWVGSPSTPAGWVREGDTVQLLCRGDGSPSPEYTLFRLQDEQEEVLNVNLEGNLTLEGVTRGQSGTYGCRVEDYDAADDVQLSKTLELRVAYLDPLELSEGKVLSLPLNSSAVVNCSVHGLPTPALRWTKDSTPLGDGPMLSLSSITFDSNGTYVCEASLPTVPVLSRTQNFTLLVQGSPELKTAEIEPKADGSWREGDEVTLICSARGHPDPKLSWSQLGGSPAEPIPGRQGWVSSSLTLKVTSALSRDGISCEASNPHGNKRHVFHFGTVSPQTSQA	87	–	–
recombinant Lu extracellular domain fused with an Fc-Tag (Lu-Fc), P50895 E245S (protein) EVRLSVPPLVEVMRGKSVILDCTPTGTHDHYMLEWFLTDRSGARPRLASAEMQGSELQVTMHDTRGRSPPYQLDSQGRLVLAEAQVGDERDYVCVVRAGAAGTAEATARLNVFAKPEATEVSPNKGTLSVMEDSAQEIATCNSRNGNPAPKITWYRNGQRLEVPVEMNPEGYMTSRTVREASGLLSLTSTLYLRLRKDDRDASFHCAAHYSLPSGRHGRLDSPTFHLTLHYPTEHVQFWVGSPSTPAGWVREGDTVQLLCRGDGSPSPEYTLFRLQDEQEEVLNVNLEGNLTLEGVTRGQSGTYGCRVEDYDAADDVQLSKTLELRVAYLDPLELSEGKVLSLPLNSSAVVNCSVHGLPTPALRWTKDSTPLGDGPMLSLSSITFDSNGTYVCEASLPTVPVLSRTQNFTLLVQGSPELKTAEIEPKADGSWREGDEVTLICSARGHPDPKLSWSQLGGSPAEPIPGRQGWVSSSLTLKVTSALSRDGISCEASNPHGNKRHVFHFGTVSPQTSQA	22	–	–
recombinant Lu extracellular domain fused with an Fc-Tag (Lu-Fc), P50895 R175N (protein) EVRLSVPPLVEVMRGKSVILDCTPTGTHDHYMLEWFLTDRSGARPRLASAEMQGSELQVTMHDTRGRSPPYQLDSQGRLVLAEAQVGDERDYVCVVRAGAAGTAEATARLNVFAKPEATEVSPNKGTLSVMEDSAQEIATCNSNNGNPAPKITWYRNGQRLEVPVEMNPEGYMTSRTVREASGLLSLTSTLYLRLRKDDRDASFHCAAHYSLPEGRHGRLDSPTFHLTLHYPTEHVQFWVGSPSTPAGWVREGDTVQLLCRGDGSPSPEYTLFRLQDEQEEVLNVNLEGNLTLEGVTRGQSGTYGCRVEDYDAADDVQLSKTLELRVAYLDPLELSEGKVLSLPLNSSAVVNCSVHGLPTPALRWTKDSTPLGDGPMLSLSSITFDSNGTYVCEASLPTVPVLSRTQNFTLLVQGSPELKTAEIEPKADGSWREGDEVTLICSARGHPDPKLSWSQLGGSPAEPIPGRQGWVSSSLTLKVTSALSRDGISCEASNPHGNKRHVFHFGTVSPQTSQA	–	4	–
recombinant Lu extracellular domain fused with an Fc-Tag (Lu-Fc), P50895 S242D (protein) EVRLSVPPLVEVMRGKSVILDCTPTGTHDHYMLEWFLTDRSGARPRLASAEMQGSELQVTMHDTRGRSPPYQLDSQGRLVLAEAQVGDERDYVCVVRAGAAGTAEATARLNVFAKPEATEVSPNKGTLSVMEDSAQEIATCNSRNGNPAPKITWYRNGQRLEVPVEMNPEGYMTSRTVREASGLLSLTSTLYLRLRKDDRDASFHCAAHYDLPEGRHGRLDSPTFHLTLHYPTEHVQFWVGSPSTPAGWVREGDTVQLLCRGDGSPSPEYTLFRLQDEQEEVLNVNLEGNLTLEGVTRGQSGTYGCRVEDYDAADDVQLSKTLELRVAYLDPLELSEGKVLSLPLNSSAVVNCSVHGLPTPALRWTKDSTPLGDGPMLSLSSITFDSNGTYVCEASLPTVPVLSRTQNFTLLVQGSPELKTAEIEPKADGSWREGDEVTLICSARGHPDPKLSWSQLGGSPAEPIPGRQGWVSSSLTLKVTSALSRDGISCEASNPHGNKRHVFHFGTVSPQTSQA	18	–	–
